Measurements as given in the supplement of paper PMC10567573.

B1: STK38L (parent)
chain: FLPGGDMMTLLMKKDTLTEEETQF
B2: NETO1 (parent)
chain: KTSLLDQLTNTSGTVIGVTSCIVI

Variants of: B1
Experiment: protein stability index of a GFP-peptide fusion (GPS, HEK-293T) (PSI 1-6); higher = more stable
Settings: c terminus: a fixed tail appended
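Further: lentivirally expressed fusions sorted by FACS into six bins by GFP to DsRed ratio, PSI derived from sequencing read proportions per bin multiplied by bin number.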

Protein stability index: each site, then its substitutions
L11: V 3.18, H 3.43, R 3.29, K 3.91, G 2.89, S 3.41, P 3.89, I 2.53, N 3.4, Y 2.41, F 1.84
E21: P 1.65, C 2.01, N 1.84, V 1.71, S 2.19, Y 1.88, F 1.2, Q 2.04, W 2.14, M 1.98, A 1.94
M7: V 2.85, C 2.63, F 2.23, D 4.85, P 3.67, A 4.11, R 3.61, I 2.08, T 3.87, Y 2.81
D15: A 1.62, Q 1.66, I 1.75, G 2.05, R 1.84, S 1.76, M 2.53, V 2.2, C 2.16, Y 1.1, W 1.62, N 2.23, H 2.35
K13: M 2.28, T 2.69, Q 2.42, Y 2.02, V 1.95, P 2.24, W 1.69, G 2.3, F 2.21, A 2.21, D 3.66
T9: W 2.2, K 2.12, P 4.22, S 2.38, D 4.35, A 2.52, I 2.19, N 3.01, F 2.16, H 2.45, C 2.01, G 2.71, L 2.32, M 3.26
E20: N 2.5, T 1.86, C 2.27, G 1.6, P 1.82, D 2.45, A 1.86, H 1.97, I 1.4, F 1.97, Y 2.08, L 1.13
L2: N 3.32, M 2.33, D 4.38, K 4.24, H 1.91, Q 2.15, C 1.42, S 2.6, W 3, G 2.23, F 3.08, V 1.78, P 2.65, R 4.15, T 2.54
E19: G 2.35, K 1.97, Y 1.9, I 2.02, W 2.14, H 2.01, N 1.72, A 2.13, D 2.42, M 1.66
M12: S 3.48, I 2.56, E 3.68, F 2.54, W 1.95, D 4.06, A 2.81, K 3.69, H 3.69, Q 3.25, R 3.48, G 3.72, N 3.86
P3: S 1.4, D 2.12, F 2.22, M 2.18, Q 2.31, R 2.76, I 2.31, N 1.89, G 2.96, H 1.98, W 2.55
T18: Y 2.18, C 1.57, V 2.49, E 2.36, D 2.29, M 1.7, F 1.73, I 1.58, L 2.15, H 2.05, P 2.68, A 2.1, R 1.84, K 2
L10: K 3.11, I 2.64, M 3.16, V 2.98, S 4.07, Y 2, W 1.98, N 4.26, E 4.71, Q 3.91, G 3.79, T 3.78, H 3.38
G4: K 3.27, S 2.61, W 1.82, E 3.57, M 2.35, I 2.35, Y 2.29, P 3.95, D 3.84, H 3.29
K14: C 2.55, Y 2.09, Q 2.18, N 1.81, M 1.97, V 1.62, W 1.7, A 2.48, G 2.25, F 2.39, L 1.89
F1: V 4.67, S 4.29, P 4.76, N 4.66, I 3.88, E 4.92, R 4.39, H 4.48, A 4.91
M8: E 4.21, R 3.36, W 1.44, N 4.12, Y 1.94, P 3.82, H 3.95, D 4.8, G 3.76, C 3.33, V 2.54, L 2.06, K 3.66, F 1.84
T16: Q 2.17, A 2.4, R 2.11, M 2, S 2.13, Y 2.24, E 2.19, K 2.31, F 1.89, L 1.74, G 2.43, C 2.21
G5: E 3.72, T 3.44, V 2.79, D 4.23, N 3.13, C 2.94, S 3.21, P 2.94, A 2.63, Q 2.72, R 3, I 2.63
Q23: T 2.09, Y 1.88, L 1.74, F 1.24, W 1.43, E 2.25, C 2.24, K 2.45, I 2.12, D 3.06, N 2.37, P 2.21, G 2.61
T22: P 1.69, K 2.18, F 2.25, E 3.21, C 2.05, N 2.31, H 2.06, L 2.12, Q 2.21, I 2.35, A 2.53, Y 2.75
F24: C 1.77, S 2.19, M 2.4, T 2.42, H 2.44, Q 2.58, W 2.09, V 2.65, L 3.02, A 2.28, I 2.77, K 2.53, E 2.35, P 2.64, R 2.09, Y 2.52, G 2.84, N 2.65
L17: G 2.37, R 2.39, I 2.11, H 2.26, C 2.36, M 2.53, V 1.94, Y 2, N 2.78, W 1.75, T 2.63, S 2.59, K 2.51
D6: L 2.71, R 2.18, C 2.24, Q 1.96, I 1.85, T 1.82, K 1.98, Y 2.42, M 2.54, W 1.4, N 2.69, H 1.72, E 2.02

Variants of: B2
Experiment: as above
Settings: c terminus: a fixed tail appended

Protein stability index, by site and new letter:
I24: T 1.6, N 2.08, V 2.2, D 2.54, K 2.04, P 2.33, Y 2.55, A 1.71, C 1.64, S 1.94, L 3.2, E 2.21, H 1.99, F 1.79, G 1.79, Q 1.62, M 2.45, W 2.92, R 1.74
I22: Y 2.81, W 3.04
V23: M 2.56, L 3.18, E 2.98, Y 2.66, I 2.81, W 2.74, F 2.28, Q 2.87, K 3.04, D 1.95, A 2.03, R 2.65, G 1.79, H 1.97, N 2.01, C 3.17, P 1.65, T 2.85
